This is an account of results in paper PMC6525185, “6mA-DNA-binding factor Jumu controls maternal-to-zygotic transition upstream of Zelda”.

This series has as its target T1, Jumu FKH domain (SPR) (UniProt Q7K214 391-540).
T1 sequence: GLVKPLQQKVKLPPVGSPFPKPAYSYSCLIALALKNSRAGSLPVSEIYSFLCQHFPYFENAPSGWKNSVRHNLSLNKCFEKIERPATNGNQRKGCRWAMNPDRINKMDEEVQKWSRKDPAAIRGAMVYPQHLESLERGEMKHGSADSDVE
The series can be described thus: SPR; EMSA: 20 mM HEPES pH 7.5, 50 mM KCl, 1 mM DTT (printed DDT), 1 mM EDTA, 0.01 mg/ml BSA, 2% Ficoll 400, 5 ng/µl poly(dI:dC), 25 °C, 15 nM probe; SPR: 20 mM Tris-Cl pH 8.0, 150 mM NaCl, 0.005% Tween 20, 25 °C; pull-down: 50 mM Tris-HCl pH 8, 150 mM NaCl, 1 mM DTT, 0.25% NP40. The note with it: protein: recombinant; label: 5' and 3' FAM (EMSA); biotin (SPR, pull-down). On the technique in general: Surface plasmon resonance follows binding to a sensor surface in real time, without labels.

B1: 6mA-dsDNA probe (dsDNA)
DNA 1: GCTATTTATGCGTTCTTTTCTTCTTTCTCATTTCTATATTTATAGTGTGTGTGTGTGTGTGGGTGTGTTTGTTGTATGTGGTTAAATATGCTTCGTTTTTGTTTAATTGGTTTTTGTTTTTGTGATGATCATGGG
DNA 2: CCCATGATCATCACAAAAACAAAAACCAATTAAACAAAAACGAAGCATATTTAACCACATACAACAAACACACCCACACACACACACACACTATAAATATAGAAATGAGAAAGAAGAAAAGAACGCATAAATAGC
modifications: N6-methyladenine in place of dA, by PCR with dm6ATP (both strands; primer-derived adenines probably unmodified, primers not given)
For B1, the dissociation constant (Kd) (commonly the equilibrium constant for the complex coming apart) was 2.37 µM.

B2: dA-dsDNA probe (dsDNA)
DNA 1: GCTATTTATGCGTTCTTTTCTTCTTTCTCATTTCTATATTTATAGTGTGTGTGTGTGTGTGGGTGTGTTTGTTGTATGTGGTTAAATATGCTTCGTTTTTGTTTAATTGGTTTTTGTTTTTGTGATGATCATGGG
DNA 2: CCCATGATCATCACAAAAACAAAAACCAATTAAACAAAAACGAAGCATATTTAACCACATACAACAAACACACCCACACACACACACACACTATAAATATAGAAATGAGAAAGAAGAAAAGAACGCATAAATAGC
With B2, the Kd came out at 42.1 µM.
